Data: US20240101645A1 (HENRY M JACKSON FOUNDATION FOR THE ADVANCEMENT OF MILITARY …, published 2024)
Where a chain is given by its changes, count along the chain named.

Molecular target: T1, MERS-CoV spike antigens (bead panel) (MERS-CoV, UniProt K9N5Q8 18-1296)
T1 sequence: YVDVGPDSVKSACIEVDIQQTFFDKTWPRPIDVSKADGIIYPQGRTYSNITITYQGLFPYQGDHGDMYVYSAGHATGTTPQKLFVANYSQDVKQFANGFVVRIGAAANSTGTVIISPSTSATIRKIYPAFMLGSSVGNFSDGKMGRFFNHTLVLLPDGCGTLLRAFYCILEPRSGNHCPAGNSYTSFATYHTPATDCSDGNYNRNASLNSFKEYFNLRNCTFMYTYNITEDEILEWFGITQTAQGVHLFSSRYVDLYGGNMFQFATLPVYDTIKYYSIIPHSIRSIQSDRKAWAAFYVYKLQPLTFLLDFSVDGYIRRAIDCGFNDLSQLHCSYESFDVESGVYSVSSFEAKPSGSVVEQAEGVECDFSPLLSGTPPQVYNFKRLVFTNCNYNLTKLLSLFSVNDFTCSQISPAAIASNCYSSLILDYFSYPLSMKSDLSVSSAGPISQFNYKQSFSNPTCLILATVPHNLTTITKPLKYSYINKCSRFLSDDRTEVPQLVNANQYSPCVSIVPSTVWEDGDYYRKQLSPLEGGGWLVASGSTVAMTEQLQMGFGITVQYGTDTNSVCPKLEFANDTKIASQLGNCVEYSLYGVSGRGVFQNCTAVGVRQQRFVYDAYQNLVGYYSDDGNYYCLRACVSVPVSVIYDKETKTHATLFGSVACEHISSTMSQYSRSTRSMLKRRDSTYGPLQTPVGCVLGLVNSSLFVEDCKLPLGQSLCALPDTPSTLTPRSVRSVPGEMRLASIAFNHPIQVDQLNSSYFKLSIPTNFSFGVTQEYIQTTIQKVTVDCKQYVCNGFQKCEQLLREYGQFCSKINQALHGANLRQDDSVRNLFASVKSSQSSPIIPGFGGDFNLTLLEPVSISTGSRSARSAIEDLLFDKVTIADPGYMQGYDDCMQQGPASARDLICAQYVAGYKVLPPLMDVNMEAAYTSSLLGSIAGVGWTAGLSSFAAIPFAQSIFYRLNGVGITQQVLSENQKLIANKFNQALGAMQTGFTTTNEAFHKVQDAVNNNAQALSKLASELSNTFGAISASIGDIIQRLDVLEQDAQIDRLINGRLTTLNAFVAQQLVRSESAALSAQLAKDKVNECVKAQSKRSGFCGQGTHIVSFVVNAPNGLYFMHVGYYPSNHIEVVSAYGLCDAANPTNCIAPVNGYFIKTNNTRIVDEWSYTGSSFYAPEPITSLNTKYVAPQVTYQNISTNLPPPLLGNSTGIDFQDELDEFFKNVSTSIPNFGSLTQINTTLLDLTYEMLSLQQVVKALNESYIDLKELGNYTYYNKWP
Assay: multiplex bead assay

B1: COV_1118 (antibody, V domains shown)
VH: EVQLVESGGGLVKPGGSLRLSCAASGFSFSNYNMNWVRQAPGKGLEWVSYISSSSSYIYYADSVKGRFTISRDNAKNSLYLQMNSLRGEDTAVYSCAREASGAYYFDRSGYFDYWGQGTLVTVSP
VL: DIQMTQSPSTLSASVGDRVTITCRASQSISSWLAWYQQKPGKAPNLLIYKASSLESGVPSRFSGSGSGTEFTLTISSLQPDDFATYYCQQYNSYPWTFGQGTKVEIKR
notes: human IgG1
Question: Does B1 bind?
Answer: Result: no binding

B2: COV_1136 (antibody, V domains shown)
VH: B1 VH with S28T, N31D, Y32C, Y50S, S54R, G88A
VL: DIQMTQSPSTLSASVGDRVTITCRASQSISSWLAWYQQKPGKAPNLLIYKASSLESGVPSRFSGSGSGTEFTLTISSLQPDDFATYYCQQYNTYPWTFGQGTKVEIKR
notes: human IgG1
Question: Does B2 bind?
Answer: Result: no binding

B3: COV_1154 (antibody, V domains shown)
VH: B1 VH with S28R, N31D
VL: B2 VL with D81Y, T93S, T97A, I106M
notes: human IgG1
Question: Does B3 bind?
Answer: Result: no binding

B4: COV_2169 (antibody, V domains shown)
VH: EVQLVESGGGVVQPGRSLRLSCAASGFTFSRYAMHWVRQAPGKGLEWVAVISYEGSNKYYADSVKGRFTISRNNSNNTLSLQMNSLRPDDTAVYYCVRSGGHYFDAFDLWGQGTMVTVSS
VL: EIVLTQSPGTLSLSPGERATLSCRASQSVSRNYVAWYQQKPGQAPRLLIYGASSRATGIPDRFSGSGSGTDFTLTISRLEPEDFALYYCQQYGSSYTFGQGTKLEIKR
notes: human IgG1
Question: Does B4 bind?
Answer: Result: no binding

B5: COV_1025 (antibody, V domains shown)
VH: QVQLVESGGGVVQPGRSLRLSCAASGFTFNTYAMHWVRQAPGKGLEWVAIISYDGGNKYYADSMKGRFTISRDNSKNTLYLQMNSLRAEDTAVYYCARARTGNYYYGMDVWGQGTTVTVSS
VL: not shown
notes: human IgG1
Question: Does B5 bind?
Answer: Result: no binding

B6: COV_2205 (antibody, V domains shown)
VH: EVQLVESGGGLVKPGGSLRLSCAASGFTFSDYYMIWIRQAPGEGLEWVSYISSRSSYTNYADSVKGRFTISRDNARNSLYLQMNSLRAEDTAVYYCARGQHDLLTGYYSWAYFDYWGQGTLVTVSS
VL: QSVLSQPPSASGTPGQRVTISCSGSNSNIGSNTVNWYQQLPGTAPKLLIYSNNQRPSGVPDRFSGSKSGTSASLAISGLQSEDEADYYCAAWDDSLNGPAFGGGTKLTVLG
notes: human IgG1
Question: Does B6 bind?
Answer: Result: no binding

B7: COV_1184 (antibody, V domains shown)
VH: QVQLQQWGAGLLKPSETLSLTCAVYGGSFSGYYWSWIRQPPGKGLEWIGEINHSGNTTYNPSLKSRVTISVDTSKNQFSLKLSSVTAADTAVYYCARGLVITYYYDSSGKPFDPWGQGTLVTVSS
VL: not shown
notes: human IgG1
Question: Does B7 bind?
Answer: Result: no binding

B8: COV_2032 (antibody, V domains shown)
VH: EVQLVESGGGLVQPGGSLRLSCAASGFTFTTYWMHWVRQAPGKGLVWVSRIKTDGSSTNYADSVKGRFTISRDNAKNMLYLQMNSLRAEDTAVYYCAREGPVSIVYFDYWGQGTLVTVSS
VL: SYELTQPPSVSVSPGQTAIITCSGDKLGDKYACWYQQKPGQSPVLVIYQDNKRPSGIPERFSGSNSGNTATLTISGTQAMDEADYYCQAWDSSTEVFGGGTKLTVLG
notes: human IgG1
Question: Does B8 bind?
Answer: Result: no binding

B9: COV_1145 (antibody, V domains shown)
VH: QVQLVESGGGVVQPGRSLRLSCAASGFTFSSYGMHWVRQAPGKGLEWVAVIWYDGSNKYYADSVKGRFTISRDNSKNTLYLQMNSLRVEDTAVYYCAREGQLGATGLDCWGQGTLVSVSS
VL: SYELTQPPSVSVSPGQTARITCSGDALPKKYAYWYQQKSGQAPVLVIYEDSKRPSGIPERFSGSSSGTMATLTISGAQVEDEADYYCYSTDNSGNHWVFGGGTKLTVLG
notes: human IgG1
Question: Does B9 bind?
Answer: Result: no binding

B10: COV_1177 (antibody, V domains shown)
VH: QVQLVESGGGVVQPGRSLRLSCAASGFTFSSYGMHWVRQAPGKGLEWVAVIWYDGSNKYYADSVKGRFTISRDNSKNTLYLQMNSLRAEDTAVYYCARDPLGAVAGYFDYWGQGTLVTVSS
VL: SYVLTQPPSVSVAPGQTARITCGGNNIGSKSVHWYQQKPGQAPVLVVYDDSDRPSGIPERFSGSNSGNTATLTISRVEAGDEADYYCQVWDSSSDHHWVFGGGTKLTVLG
notes: human IgG1
Question: Does B10 bind?
Answer: Result: no binding

B11: COV_3053 (antibody, V domains shown)
VH: EVQLVESGGGLVQPGRSLRLSCTASGFTLGDYAMTWVRQAPGKGLEWLGIIRNKRYGETKQYAASVKGRFTFSRDDSKGIGYLQRLSLKIEDTGVYYCTREHIVRDDAFDVWGQGTTVTVSS
VL: DIVMTQSPDSLAVSLGERATINCKSSQSVLYSSNNKNYIAWYQQRPGQPPKLLIYWTSTRASGVPDRFSGSGSGTDFALTISSLQAEDVAVYYCQQYYTIPRTFGQGTKVEIK
notes: human IgG1
Question: Does B11 bind?
Answer: Result: no binding
